According to patent publication US20030119019 (published 2003):

Key:
[1] = target: GST::bov-rPrP25-242 (rPrPc) (Bos taurus, UniProt P10279 P10279:25-242); assay: EMSA; settings: tags: GST fusion, insect cells/baculovirus; label: 32P
[2] = target: GST::bov-rPrP93-242 (rPrP27-30 + 1 octarepeat) (Bos taurus, UniProt P10279 P10279:93-242); assay: EMSA; settings: tags: GST fusion, insect cells/baculovirus; label: 32P

Binder	binding result [1]	binding result [2]
Ap2 motif II (ssRNA) RNA: GGAGCUCAGCCUUCACUGCUACCUUAGAGUAGGAGCGGGACGAGGGGUUGUUGGGACGUGGGUAUGAUCCAUACAUUAGGAAGCUGGUGAGCUGGCACCACGGUCGGAUCCAC	binds	no binding
Ap1 motif I 60mer (ssRNA) RNA: GCAAUGCGUUGUGUGGGAAUUUGAGGGACGAUGGGGAAGUGGGGACGAAUGACUCAUUGC	binds	no binding
